Data on one substance can be found in patent publication CN116535503A.

In general, EC50 refers to the concentration needed to bring the measured effect to its halfway point. For orientation: IC50 means the concentration that inhibits the measured activity by half. As usually defined, the Kd is the equilibrium constant for the complex coming apart. The koff is a measure of how fast the partners let go of each other. The low end stands for a long-lived complex, the high end for a short-lived complex. The kon is the second-order rate constant of association.

For experiment [1], the target named is GDF15-HIS(百普赛斯，CAT#:GD5-H5149) (human) (UniProt Q99988). Briefly: cell-based or functional assay.
GDF15-HIS(百普赛斯，CAT#:GD5-H5149) (human), sequence (Q99988 197-308 limits assumed): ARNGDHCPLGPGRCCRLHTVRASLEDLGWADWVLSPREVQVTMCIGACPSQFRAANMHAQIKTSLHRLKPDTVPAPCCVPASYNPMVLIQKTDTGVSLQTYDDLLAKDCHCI
For experiment [2] the target is unchanged. Nature of the experiment: ELISA, GDF15-HIS coated. Background: An ELISA detects its analyte on a solid surface through an enzyme-linked reagent.
Experiment [3] has as its target GDF15-mFC蛋白(GDF15:Genbank登记号NM_004864.3;mFC:Genbank登记号AAH31470.1) (human; mouse) (UniProt Q99988). Briefly: competition ELISA: blocks GDF15-mFC binding to coated GFRAL-hFc.
The target of experiment [4] is GDF15-HIS(百普赛斯，CAT#:GD5-H5149) (human) (UniProt Q99988). Briefly: BLI (ForteBio Octet), antibody captured at 10 μg/ml, GDF15 6.25-200 nM. On the technique in general: Biolayer interferometry detects binding as a change in optical thickness at a sensor tip.

“Ponsegromab(Pfizer;Drug Bank:D11909) (antibody)”: in experiment [1], the Bottom (fold luciferase activity), HEK293 SRE-LUC2-cRET-GFRAL reporter cells was 1.07 and the IC50(μg/ml), luciferase in HEK293 SRE-LUC2-cRET-GFRAL reporter cells stimulated with 5 ng/ml GDF15-His was found to be 0.0321 µg/mL. In addition, in experiment [2], the EC50 came to 0.096 µg/mL and the OD450.Max is 1.1 OD450. Also, in experiment [3], the IC50 was determined as 0.504 µg/mL and the OD450.Max worked out at 1.02 OD450. In experiment [4], the Kd was below 1 pM, the koff was below 1e-07 s⁻¹ and the kon was found to be 711000 M⁻¹ s⁻¹.
